This note sets out measurements from paper PMC3101628 (Nature structural & molecular biology, 2011).

As a reminder, the stoichiometry N is a count of units in the complex or per binding partner.

Holding throughout (assay): SEC
In general terms: In gel filtration, larger molecules generally elute earlier.

The target in data set [1] is T1, hRRM1 with the first 74 residues deleted (t-hRRM1) (human, UniProt P23921 75-792).
T1 sequence (looked up): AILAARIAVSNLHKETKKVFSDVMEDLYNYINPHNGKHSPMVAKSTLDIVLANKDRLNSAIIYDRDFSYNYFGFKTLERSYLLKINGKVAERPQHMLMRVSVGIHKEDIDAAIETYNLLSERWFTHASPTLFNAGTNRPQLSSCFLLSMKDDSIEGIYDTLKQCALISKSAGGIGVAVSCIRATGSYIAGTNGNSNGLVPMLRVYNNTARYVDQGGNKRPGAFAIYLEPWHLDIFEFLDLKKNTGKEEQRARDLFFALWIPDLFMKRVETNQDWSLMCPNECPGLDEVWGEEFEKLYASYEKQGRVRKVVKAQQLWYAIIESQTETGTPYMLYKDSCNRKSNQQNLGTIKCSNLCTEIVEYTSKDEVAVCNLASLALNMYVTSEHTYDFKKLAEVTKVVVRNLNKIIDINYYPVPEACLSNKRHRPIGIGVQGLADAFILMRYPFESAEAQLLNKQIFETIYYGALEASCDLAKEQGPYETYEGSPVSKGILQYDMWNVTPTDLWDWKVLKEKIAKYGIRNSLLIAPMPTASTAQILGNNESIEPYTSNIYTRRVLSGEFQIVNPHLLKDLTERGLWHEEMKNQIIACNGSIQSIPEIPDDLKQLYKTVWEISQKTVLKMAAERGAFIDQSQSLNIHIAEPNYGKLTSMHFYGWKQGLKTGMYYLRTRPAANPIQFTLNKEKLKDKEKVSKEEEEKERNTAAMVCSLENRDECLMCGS

The data set “SEC” deals with the molecule itself.
In data set [2] the target is T2, S. cerevisiae ribonucleotide reductase RR1 (ScRR1), wild type (S. cerevisiae, UniProt P21524 1-888).
T2 sequence: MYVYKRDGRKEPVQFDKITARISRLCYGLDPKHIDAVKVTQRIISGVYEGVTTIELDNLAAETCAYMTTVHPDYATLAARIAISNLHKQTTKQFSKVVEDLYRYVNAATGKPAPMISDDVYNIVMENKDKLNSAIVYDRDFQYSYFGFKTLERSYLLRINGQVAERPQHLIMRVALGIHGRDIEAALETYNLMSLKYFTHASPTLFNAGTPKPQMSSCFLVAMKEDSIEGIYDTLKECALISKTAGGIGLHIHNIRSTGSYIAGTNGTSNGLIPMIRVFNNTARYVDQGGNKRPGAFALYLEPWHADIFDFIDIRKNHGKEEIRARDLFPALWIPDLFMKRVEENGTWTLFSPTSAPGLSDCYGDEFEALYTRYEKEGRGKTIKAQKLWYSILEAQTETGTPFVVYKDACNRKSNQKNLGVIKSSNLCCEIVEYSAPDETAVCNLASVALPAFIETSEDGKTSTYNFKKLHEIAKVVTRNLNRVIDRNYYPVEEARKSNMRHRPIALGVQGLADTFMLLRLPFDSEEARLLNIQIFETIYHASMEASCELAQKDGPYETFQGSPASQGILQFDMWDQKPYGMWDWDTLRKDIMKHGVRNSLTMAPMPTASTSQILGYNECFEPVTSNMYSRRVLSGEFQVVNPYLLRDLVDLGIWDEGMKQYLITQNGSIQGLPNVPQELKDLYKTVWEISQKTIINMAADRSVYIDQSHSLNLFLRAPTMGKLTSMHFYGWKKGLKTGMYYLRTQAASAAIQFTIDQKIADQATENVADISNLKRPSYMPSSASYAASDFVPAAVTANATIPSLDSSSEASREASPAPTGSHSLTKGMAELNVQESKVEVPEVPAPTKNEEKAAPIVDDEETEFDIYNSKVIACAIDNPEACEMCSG

B1: human ribonucleotide reductase small subunit hRRM2 (enzyme, UniProt P31350 1-389, looked up)
chain: MLSLRVPLAPITDPQQLQLSPLKGLSLVDKENTPPALSGTRVLASKTARRIFQEPTEPKTKAAAPGVEDEPLLRENPRRFVIFPIEYHDIWQMYKKAEASFWTAEEVDLSKDIQHWESLKPEERYFISHVLAFFAASDGIVNENLVERFSQEVQITEARCFYGFQIAMENIHSEMYSLLIDTYIKDPKEREFLFNAIETMPCVKKKADWALRWIGDKEATYGERVVAFAAVEGIFFSGSFASIFWLKKRGLMPGLTFSNELISRDEGLHCDFACLMFKHLVHKPSEERVREIIINAVRIEQEFLTEALPVKLIGMNCTLMKQYIEFVADRLMLELGFSKVFRVENPFDFMENISLEGKTNFFEKRVGEYQRMGVMSSPTENSFTLDADF
For B1, the binding result in data set [1] is listed as “binds”. For the same molecule, the “stoichiometry N” value in the data set “SEC” came out at 2.

B2: yeast RR2●RR4 hetero-dimer (ScRR2●ScRR4) (complex, S. cerevisiae)
chain 1: MPKETPSKAAADALSDLEIKDSKSNLNKELETLREENRVKSDMLKEKLSKDAENHKAYLKSHQVHRHKLKEMEKEEPLLNEDKERTVLFPIKYHEIWQAYKRAEASFWTAEEIDLSKDIHDWNNRMNENERFFISRVLAFFAASDGIVNENLVENFSTEVQIPEAKSFYGFQIMIENIHSETYSLLIDTYIKDPKESEFLFNAIHTIPEIGEKAEWALRWIQDADALFGERLVAFASIEGVFFSGSFASIFWLKKRGMMPGLTFSNELICRDEGLHTDFACLLFAHLKNKPDPAIVEKIVTEAVEIEQRYFLDALPVALLGMNADLMNQYVEFVADRLLVAFGNKKYYKVENPFDFMENISLAGKTNFFEKRVSDYQKAGVMSKSTKQEAGAFTFNEDF
chain 2: MEAHNQFLKTFQKERHDMKEAEKDEILLMENSRRFVMFPIKYHEIWAAYKKVEASFWTAEEIELAKDTEDFQKLTDDQKTYIGNLLALSISSDNLVNKYLIENFSAQLQNPEGKSFYGFQIMMENIYSEVYSMMVDAFFKDPKNIPLFKEIANLPEVKHKAAFIERWISNDDSLYAERLVAFAAKEGIFQAGNYASMFWLTDKKIMPGLAMANRNICRDRGAYTDFSCLLFAHLRTKPNPKIIEKIITEAVEIEKEYYSNSLPVEKFGMDLKSIHTYIEFVADGLLQGFGNEKYYNAVNPFEFMEDVATAGKTTFFEKKVSDYQKASDMSKSATPSKEINFDDDF
Turning to B2, the binding result in data set [2] is on record as “binds”.
